Key:
[1] = biological target: T1, IGF-II (human) (human, UniProt P01344 25-91); assay: BIAcore, IGF-II on chip against IGF-I on chip, 200 nM
T1 construct: also called radioiodinated IGF-II
Experimental: (§1) Instrument and reagents (buffers, chemicals for activating and deactivated) were purchased from BIAcore (Uppsala, Sweden). IGF-I, IGF-II and des(1-3)IGF-I were immobilized on the sensor chip by amine coupling and deactivated with 0.1M ethanolamine. A reference flow cell was also prepared to correct for background and bulk refractive index contribution. After equilibration buffer to achieve a stable baseline, binding experiments was at 22 C in 2 separate experiments with the samples injected in random order. 40 μl of each sample was injected over the sensor surface at a rate of 10 μl/min (association period), followed by a 6 min wash with buffer (dissociation period). The sensor surface was regenerated with 20 μl of 100 mM HCl and washed for 6 min before the next sample. We used a 1:1 Langmuir binding interaction model for kinetic analysis using the BIAcore software and GraphPad Prism (GraphPad Software Inc, San Diego, Calif.).
(§2) The interaction of proteolysed IGFBP-1 with IGF-I and IGF-II biosensor surfaces was analysed (BIAcore). In FIG. 12 the mean biosensorgrams for the interaction of 200 nM phosphorylated IGFBP-1 intact are shown, and after 2-h and 4-h incubations with partially purified azurocidin, with immobilized IGF-I (FIG. 12A) and IGF-II (FIG. 12B). […]

[2] = biological target: T1, IGF-II (human); assay: BIAcore, IGF-II on chip, 200 nM (the reference itself)
Experimental: as §1, §2

[3] = biological target: T1, IGF-II (human); assay: cell-based or functional assay
[4] = biological target: T2, Recombinant IGF-I (human) (human, UniProt P05019 49-118); assay: BIAcore, IGF-I on chip, 400 nM
T2 construct: also called IGF-1; full length IGF-I
Experimental: as §1, §2

[5] = biological target: T3, des(1-3)IGF-I (human, UniProt P05019 52-118); assay: BIAcore, des(1-3)IGF-I amine-coupled on chip
T3 construct: domain: des(1-3)IGF-I (mature IGF-I without its first three residues)
Experimental: Recombinant pIGFBP-1 was analyzed across a des(1-3) IGF-I biosensor surfaces with a concentration range of 50, 100, 200, 400 nM, at a flow rate of 10 μl/min. The mean sensorgrams are shown for 400 nM IGFBP-1 (intact, n=3) and 200 nM IGFBP-1, intact (0 h, n=4) and after 2-h (n=5) and 4-h (n=3) incubations with partially purified azurocidin in a protease:substrate ratio of 1:3 500 for 2 h at 37 C.
as §1, with “We used a 1:1 Langmuir binding interaction model for kinetic analysis using the BIAcore software and GraphPad Prism (GraphPad Software Inc, San Diego, Calif.).” left out
The interaction of IGFBP-1 with des(1-3)IGF-I on the biosensor surface was also determined. […]

[6] = biological target: T1, IGF-II (human); assay: BIAcore, IGF-II on chip against IGF-I on chip, 400 nM
Experimental: as §1
The interaction of proteolysed IGFBP-1 with IGF-I and IGF-II biosensor surfaces was analysed (BIAcore). […] The kinetic analyses of the rates of association (over 21-120 s, ks) and dissociation (over 261-360 s, kd) for the results shown in FIGS. 12A and 12B are summarized in Table 2. […] The rate of dissociation further increased to more than 7-fold at the 4-h time point. […]

[7] = biological target: T2, Recombinant IGF-I (human); assay: BIAcore, IGF-I on chip, 200 nM (the reference itself)
Experimental: as §1, §2

[8] = biological target: T1, IGF-II (human); assay: BIAcore, IGF-II on chip, 400 nM
Experimental: The sensor surface was regenerated with 20 μl of 100 mM HCl and washed for 6 min before the next sample. We used a 1:1 Langmuir binding interaction model for kinetic analysis using the BIAcore software and GraphPad Prism (GraphPad Software Inc, San Diego, Calif.).
The interaction of proteolysed IGFBP-1 with IGF-I and IGF-II biosensor surfaces was analysed (BIAcore). […] The kinetic analyses of the rates of association (over 21-120 s, ks) and dissociation (over 261-360 s, kd) for the results shown in FIGS. 12A and 12B are summarized in Table 2. […] The rate of dissociation further increased to more than 7-fold at the 4-h time point. The rate of dissociation of IGFBP-1 from IGF-II was greater than twice that from IGF-I, and proteolysis had no effect on this relationship.
TABLE 2 Kinetic analysis of interactions of intact and proteolysed phosphorylated IGFBP-1 with IGF biosensor surfaces The kinetic data shown in […] were analysed using the 1:1 Langmuir interaction model. IGFBP-I was injected either intact, or after 2- or 4-proteolysis by azurocidin, over IGF-I and IGF-II biosensor surfaces.

T1 sequence (P01344 25-91 limits assumed): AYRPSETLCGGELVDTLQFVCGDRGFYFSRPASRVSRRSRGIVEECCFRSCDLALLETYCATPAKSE
T2 sequence (P05019 49-118 limits assumed): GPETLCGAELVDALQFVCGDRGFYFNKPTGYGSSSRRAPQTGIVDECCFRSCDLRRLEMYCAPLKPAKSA
T3 sequence (P05019 52-118 limits assumed): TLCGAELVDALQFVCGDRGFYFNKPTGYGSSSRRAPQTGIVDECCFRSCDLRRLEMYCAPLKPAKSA

kd rel to IGF-I [1]: 2.41 ratio
ks rel to IGF-I [1]: 1.02 ratio
rel kd (relative to 200 nM intact pIGFBP-1) [2]: 1 ratio
rel ks (relative to 200 nM intact pIGFBP-1) [2]: 1 ratio
3H-thymidine incorporation in MCF-7 cells stimulated by IGF-II 10 ng/ml (2-fold without IGFBP-1) [3]: 1.5 fold
rel kd (relative to 200 nM intact pIGFBP-1) [4]: 1 ratio
rel ks (relative to 200 nM intact pIGFBP-1) [4]: 1.91 ratio
fold lower biosensor response than with full length IGF-I [5]: 10 fold less
kd rel to IGF-I [6]: 2.33 ratio
ks rel to IGF-I [6]: 1.01 ratio
rel kd (relative to 200 nM intact pIGFBP-1) [7]: 1 ratio
rel ks (relative to 200 nM intact pIGFBP-1) [7]: 1 ratio
rel kd (relative to 200 nM intact pIGFBP-1) [8]: 0.97 ratio
rel ks (relative to 200 nM intact pIGFBP-1) [8]: 1.86 ratio
B1: Recombinant phosphorylated IGFBP-1 (human), intact (other, UniProt P08833 26-259, looked up)
chain: APWQCAPCSAEKLALCPPVSASCSEVTRSAGCGCCPMCALPLGAACGVATARCARGLSCRALPGEQQPLHALTRGQGACVQESDASAPHAAEAGSPESPESTEITEEELLDNFHLMAPSEEDHSILWDAISTYDGSKALHVTNIKKWKEPCRIELYRVVESLAKAQETSGEEISKFYLPNCNKNGFYHSRQCETSMDGEAGLCWCVYPWNGKRIPGSPEIRGDPNCQIYFNVQN
modifications: phosphorylated; the sites were not determined here (the filing names Ser101, Ser119, Ser169 as sites for phosphorylation)
notes: mature; Analyte in the BIAcore runs and substrate in the protease assays; also called pIGFBP-1; recombinant pIGFBP-1
